From PMC9487752, “Novel mycoplasma nucleomodulin MbovP475 decreased cell viability by regulating expression of CRYAB and MCF2L2”

Legend:
Assay in all cases: Southwestern blot; no change vs WT; EMSA: LightShift kit binding buffer, 20 min, room temperature, 5% native PAGE; Southwestern: 2 ug protein on nitrocellulose renatured in TNED buffer, 20 pmol biotin DNA, 12 h, room temperature; SPR: Biacore, NTA chip (~100 RU protein), buffer not given
Conditions in all cases: protein: recombinant; tags: His (pET-30a); label: 5'-C6-biotin (both oligos by primer name); blunt
rMbovP475-265NQ266 = target: T1, rMbovP475-265NQ266 (Mycoplasma bovis HB0801, UniProt A0A454AQS7 1-368, N265A;Q266A)
T1 sequence: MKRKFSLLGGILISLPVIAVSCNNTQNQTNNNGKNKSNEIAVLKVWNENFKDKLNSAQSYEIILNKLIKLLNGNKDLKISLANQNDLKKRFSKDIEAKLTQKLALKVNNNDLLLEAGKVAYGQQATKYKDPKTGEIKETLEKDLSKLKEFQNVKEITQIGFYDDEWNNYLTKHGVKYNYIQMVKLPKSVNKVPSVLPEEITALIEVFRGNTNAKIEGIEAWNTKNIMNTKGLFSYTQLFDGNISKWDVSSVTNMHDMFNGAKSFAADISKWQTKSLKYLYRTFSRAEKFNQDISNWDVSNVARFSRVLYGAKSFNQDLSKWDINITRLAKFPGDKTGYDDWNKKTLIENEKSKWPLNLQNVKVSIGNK

MbovP475∆DB2 = target: T2, MbovP475∆DB2 (Mycoplasma bovis HB0801, UniProt A0A454AQS7 1-298+333-368, internal_change)
T2 sequence: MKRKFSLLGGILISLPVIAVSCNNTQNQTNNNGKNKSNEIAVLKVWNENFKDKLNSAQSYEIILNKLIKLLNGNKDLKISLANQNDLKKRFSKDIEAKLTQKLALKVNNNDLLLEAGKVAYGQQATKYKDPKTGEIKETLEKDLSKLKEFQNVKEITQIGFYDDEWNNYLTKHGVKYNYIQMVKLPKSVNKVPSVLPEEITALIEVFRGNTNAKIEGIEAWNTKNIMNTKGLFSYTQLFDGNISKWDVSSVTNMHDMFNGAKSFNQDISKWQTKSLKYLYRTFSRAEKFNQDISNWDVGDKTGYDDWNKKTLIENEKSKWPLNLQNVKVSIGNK

MbovP475∆DB3 = target: T3, MbovP475∆DB3 (Mycoplasma bovis HB0801, UniProt A0A454AQS7 1-338)
T3 sequence: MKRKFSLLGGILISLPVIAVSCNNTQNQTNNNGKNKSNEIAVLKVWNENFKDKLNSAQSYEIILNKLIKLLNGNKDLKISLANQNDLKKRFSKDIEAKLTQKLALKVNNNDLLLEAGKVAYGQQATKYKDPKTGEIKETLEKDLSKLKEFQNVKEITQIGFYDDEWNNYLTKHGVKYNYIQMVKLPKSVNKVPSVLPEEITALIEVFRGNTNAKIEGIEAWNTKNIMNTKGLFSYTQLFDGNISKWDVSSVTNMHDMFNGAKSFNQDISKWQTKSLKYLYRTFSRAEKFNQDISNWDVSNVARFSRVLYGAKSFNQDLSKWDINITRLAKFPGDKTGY

Measured: binding result

B1: MCF2L2 promoter (+53 to +112) (dsDNA)
DNA 1: CAACTAACACTTTACGGGAGTGGGCACATCATTCCTGAATAAGGACACGCGCGTGCGCAC
DNA 2: GTGCGCACGCGCGTGTCCTTATTCAGGAATGATGTGCCCACTCCCGTAAAGTGTTAGTTG
binds: all assays above

B2: CRYAB promoter (+108 to +167) (dsDNA)
DNA 1: TCTCTTCCCAGCTTCTACTTCCCTGAGCCCCTTCTACCTTCGGCCGCCCTCATTTCTGCG
DNA 2: CGCAGAAATGAGGGCGGCCGAAGGTAGAAGGGGCTCAGGGAAGTAGAAGCTGGGAAGAGA
binds: all assays above
